Source: the supplement of paper PMC10724198
± gives the standard deviation of the averaged measurements.

What was measured:
[1] = tested on: Saccharomyces cerevisiae; assay: protein stability index of tFT-peptide fusion (C-terminal peptide) (PSI (0-1 scale)); higher = more stable (slower turnover)
Experimental: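 MPS profiling in S. cerevisiae of the tFT-X12 degron library: putative degron peptides plus stable controls, 12 aa, fused to the C-terminus of a sfGFP-mCherry timer. Cells are FACS-sorted into 8 mCherry/sfGFP bins and deep-sequenced. PSI runs from 0 (unstable) to 1 (stable). Backgrounds are wild type, das1Δ and doa10Δ at 30 °C, and wild type, das1Δ, cdc34-1 and cdc53-1 at 37 °C; 2-3 technical replicates each.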

[2] = tested on: Saccharomyces cerevisiae; assay: as above; details: genetic background: wild type; temperature: 30 C
[3] = genetic background: cdc34-1, temperature: 37 C
[4] = genetic background: cdc53-1, temperature: 37 C
[5] = genetic background: das1 deletion, temperature: 30 C
[6] = genetic background: das1 deletion, temperature: 37 C
[7] = genetic background: doa10 deletion, temperature: 30 C
[8] = genetic background: wild type, temperature: 30 C
[9] = genetic background: wild type, temperature: 37 C
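Note: PSI is a weighted mean of sequencing reads over stability bins, variants kept only with over 10 reads, mCherry proximal and sfGFP distal, peptide attached via GGGS linker.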

| Sequence | protein stability index [1, 3] | protein stability index [1, 4] | protein stability index [1, 5] | protein stability index [1, 6] | protein stability index [1, 7] | protein stability index [1, 8] | protein stability index [1, 9] | protein stability index [2] |
| --- | --- | --- | --- | --- | --- | --- | --- | --- |
| GFFFYFVLFGLS | 0.34 ± 0.061 | 0.409 ± 0.0011 | 0.29 ± 0.015 | 0.47314 ± 0.00013 | 0.285 ± 0.011 | 0.268 ± 0.018 | 0.446 ± 0.016 | 0.409 ± 0.0059 |
| GFISKLIIKLAA | 0.542 ± 0.0055 | 0.566 ± 0.032 | 0.43 ± 0.025 | 0.5511 ± 0.0043 | 0.269 ± 0.0091 | 0.319 ± 0.016 | 0.462 ± 0.026 | 0.435 ± 0.0059 |
| GFVLMLLVRFEL | 0.299 ± 0.037 | 0.416 ± 0.0054 | 0.309 ± 0.031 | 0.474 ± 0.015 | 0.328 ± 0.011 | 0.294 ± 0.046 | 0.465 ± 0.035 | 0.419 ± 0.034 |
| GGFRVLLWCVVW | 0.19 ± 0.046 | 0.3237 ± 0.0018 | 0.214 ± 0.041 | 0.399 ± 0.0044 | 0.184 ± 0.0074 | 0.208 ± 0.03 | 0.35 ± 0.028 | 0.28 ± 0.016 |
| GGGEGVVWVRLG | 0.537 ± 0.054 | 0.72 ± 0.011 | 0.637 ± 0.0046 | 0.737 ± 0.009 | 0.116 ± 0.012 | 0.131 ± 0.0021 | 0.19 ± 0.01 | 0.272 ± 0.018 |
| GGGWCEMLIVVG | 0.506 ± 0.018 | 0.512 ± 0.026 | 0.358 ± 0.029 | 0.5495 ± 0.0039 | 0.324 ± 0.013 | 0.367 ± 0.03 | 0.542 ± 0.017 | 0.441 ± 0.018 |
| GGRFVWIVRAVG | 0.6323 ± 0.0024 | 0.727 ± 0.017 | 0.611 ± 0.021 | 0.73 ± 0.022 | 0.233 ± 0.004 | 0.272 ± 0.037 | 0.568 ± 0.057 | 0.471 ± 0.014 |
| GGRHYGILDLSL | 0.638 ± 0.063 | 0.708 ± 0.013 | 0.677 ± 0.019 | 0.719 ± 0.024 | 0.6927 ± 0.0056 | 0.677 ± 0.025 | 0.6992 ± 0.00076 | 0.7174 ± 0.0062 |
| GGVSPRSSMDLL | 0.6849 ± 0.0066 | 0.764 ± 0.01 | 0.646 ± 0.023 | 0.736 ± 0.029 | 0.648 ± 0.0075 | 0.645 ± 0.012 | 0.7319 ± 0.0035 | 0.434 ± 0.21 |
| GGVWVLGVAVVW | 0.114 ± 0.014 | 0.132 ± 0.029 | 0.246 ± 0.019 | 0.349 ± 0.017 | 0.207 ± 0.0064 | 0.236 ± 0.023 | 0.275 ± 0.0036 | 0.348 ± 0.062 |
| GGWSFSSLWKIA | 0.625 ± 0.066 | 0.817 ± 0.015 | 0.765 ± 0.038 | 0.8379 ± 0.0033 | 0.126 ± 0.013 | 0.127 ± 0.019 | 0.205 ± 0.012 | 0.301 ± 0.09 |
| GIGVVWLDVFKT | 0.4 ± 0.0057 | 0.499 ± 0.024 | 0.321 ± 0.035 | 0.537 ± 0.011 | 0.301 ± 0.024 | 0.304 ± 0.017 | 0.504 ± 0.035 | 0.426 ± 0.017 |
| GIKLNVVYILLG | 0.486 ± 0.045 | 0.544 ± 0.025 | 0.377 ± 0.03 | 0.644 ± 0.017 | 0.34 ± 0.041 | 0.35 ± 0.05 | 0.536 ± 0.0097 | 0.482 ± 0.072 |
| GKHILLISLNIT | 0.281 ± 0.024 | 0.395 ± 0.067 | 0.252 ± 0.045 | 0.5 ± 0.013 | 0.246 ± 0.022 | 0.251 ± 0.046 | 0.455 ± 0.02 | 0.351 ± 0.0065 |
| GKVSSFVLFHIS | 0.649 ± 0.039 | 0.761 ± 0.033 | 0.622 ± 0.031 | 0.7502 ± 0.0042 | 0.202 ± 0.024 | 0.234 ± 0.021 | 0.475 ± 0.0066 | 0.301 ± 0.013 |
| GLAVLSWLYIEL | 0.557 ± 0.022 | 0.57162 ± 0.00039 | 0.457 ± 0.031 | 0.598 ± 0.013 | 0.445 ± 0.019 | 0.461 ± 0.014 | 0.57036 ± 0.0001 | 0.487 ± 0.013 |
| GLCFRVCIWVFV | 0.176 ± 0.0029 | 0.284 ± 0.024 | 0.206 ± 0.025 | 0.364 ± 0.0058 | 0.103 ± 0.016 | 0.125 ± 0.025 | 0.218 ± 0.0086 | 0.195 ± 0.041 |

| Sequence | protein stability index [1, 3] | protein stability index [1, 4] | protein stability index [1, 5] | protein stability index [1, 6] | protein stability index [1, 7] | protein stability index [1, 8] | protein stability index [1, 9] | protein stability index [2] |
| --- | --- | --- | --- | --- | --- | --- | --- | --- |
| GLGWLLFVVERV | 0.457 ± 0.019 | 0.499 ± 0.046 | 0.359 ± 0.037 | 0.552 ± 0.011 | 0.34 ± 0.018 | 0.345 ± 0.025 | 0.511 ± 0.027 | 0.453 ± 0.032 |
| GLSLLLLWFKVC | 0.174 ± 0.0095 | 0.36 ± 0.0093 | 0.307 ± 0.027 | 0.463 ± 0.014 | 0.0902 ± 0.0054 | 0.104 ± 0.025 | 0.0839 ± 0.013 | 0.169 ± 0.017 |
| GLSVFFFVGFIF | 0.38 ± 0.091 | 0.452 ± 0.033 | 0.339 ± 0.022 | 0.526 ± 0.021 | 0.306 ± 0.017 | 0.322 ± 0.02 | 0.521 ± 0.031 | 0.418 ± 0.047 |
| GLVSCWIDPSMA | 0.697 ± 0.0081 | 0.77 ± 0.032 | 0.635 ± 0.0088 | 0.73 ± 0.025 | 0.597 ± 0.021 | 0.628 ± 0.03 | 0.708 ± 0.023 | 0.714 ± 0.04 |
| GPCRPWIVVYAG | 0.566 ± 0.036 | 0.595 ± 0.042 | 0.357 ± 0.034 | 0.5831 ± 0.0018 | 0.295 ± 0.022 | 0.333 ± 0.018 | 0.512 ± 0.0063 | 0.475 ± 0.066 |
| GPWVIFSHLLLT | 0.459 ± 0.037 | 0.49 ± 0.017 | 0.405 ± 0.017 | 0.546 ± 0.013 | 0.258 ± 0.0084 | 0.249 ± 0.02 | 0.3963 ± 0.0027 | 0.404 ± 0.023 |
| GRFGVGVVFRLA | 0.669 ± 0.038 | 0.72 ± 0.016 | 0.637 ± 0.028 | 0.719 ± 0.01 | 0.347 ± 0.032 | 0.393 ± 0.027 | 0.6096 ± 0.0043 | 0.456 ± 0.043 |
| GRGRGGRWGRLC | 0.642 ± 0.05 | 0.739 ± 0.016 | 0.646 ± 0.0085 | 0.75048 ± 0.00029 | 0.201 ± 0.023 | 0.215 ± 0.024 | 0.476 ± 0.023 | 0.269 ± 0.05 |
| GRLRLGVLCGGV | 0.611 ± 0.016 | 0.661 ± 0.014 | 0.469 ± 0.021 | 0.655 ± 0.018 | 0.454 ± 0.0071 | 0.472 ± 0.013 | 0.634 ± 0.017 | 0.529 ± 0.045 |
| GRVFSSFFLYIS | 0.051 ± 0.02 | 0.0556 ± 0.0033 | 0.112 ± 0.011 | 0.184 ± 0.011 | 0.14 ± 0.0057 | 0.0543 ± 0.017 | 0.0883 ± 0.017 | 0.0831 ± 0.0098 |
| GRVYLLGLYMSF | 0.453 ± 0.041 | 0.485 ± 0.026 | 0.306 ± 0.083 | 0.525 ± 0.064 | 0.3887 ± 0.0029 | 0.338 ± 0.026 | 0.481 ± 0.037 | 0.373 ± 0.0094 |
| GSLGHCWFLFGV | 0.59 ± 0.038 | 0.538 ± 0.011 | 0.539 ± 0.022 | 0.461 ± 0.0075 | 0.556 ± 0.064 | 0.538 ± 0.0098 | 0.475 ± 0.021 | 0.463 ± 0.016 |
| GSLHVISVVGML | 0.696 ± 0.012 | 0.709 ± 0.019 | 0.592 ± 0.016 | 0.695 ± 0.018 | 0.393 ± 0.0045 | 0.439 ± 0.018 | 0.595 ± 0.014 | 0.52 ± 0.034 |
| GSVLWISCLIFC | 0.157 ± 0.019 | 0.267 ± 0.0085 | 0.189 ± 0.035 | 0.349 ± 0.0061 | 0.1641 ± 0.0013 | 0.18 ± 0.027 | 0.347 ± 0.038 | 0.3 ± 0.026 |
| GTHWARLGWLLA | 0.607 ± 0.03 | 0.711 ± 0.036 | 0.619 ± 0.019 | 0.724 ± 0.022 | 0.161 ± 0.0026 | 0.176 ± 0.023 | 0.379 ± 0.033 | 0.227 ± 0.11 |
| GVAFGLLVWLLG | 0.432 ± 0.021 | 0.509 ± 0.014 | 0.357 ± 0.026 | 0.5307 ± 0.0018 | 0.304 ± 0.02 | 0.326 ± 0.033 | 0.484 ± 0.0068 | 0.378 ± 0.071 |
